This note sets out measurements from US20110142851A1 (EMERGENT PRODUCT DEVELOPMENT SEATTLE, published 2011).

Assay [1] deals with T1, hu HIL6 AFH monomer (human).
T1 chain: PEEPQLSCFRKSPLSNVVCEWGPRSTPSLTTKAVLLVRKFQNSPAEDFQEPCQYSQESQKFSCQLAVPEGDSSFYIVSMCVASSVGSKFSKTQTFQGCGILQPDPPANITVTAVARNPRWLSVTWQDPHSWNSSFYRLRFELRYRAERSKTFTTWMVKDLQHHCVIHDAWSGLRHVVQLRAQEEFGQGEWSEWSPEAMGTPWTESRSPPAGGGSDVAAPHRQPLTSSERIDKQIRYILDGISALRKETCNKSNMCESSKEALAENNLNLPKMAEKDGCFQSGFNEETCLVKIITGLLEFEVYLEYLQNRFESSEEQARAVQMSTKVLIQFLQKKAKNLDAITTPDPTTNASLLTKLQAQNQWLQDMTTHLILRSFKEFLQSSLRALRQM
Nature of the assay: SPR Biacore T100, binder captured by anti-human Fc. A general note: Surface plasmon resonance follows binding to a sensor surface in real time, without labels.

The target in assay [2] is T2, recombinant human IL6 (human, UniProt P05231 30-212).
T2 construct: also called rhIL6; IL6 monomer
Nature of the assay: SPR Biacore T100, binder captured by anti-human Fc.

Assay [3] has as its target T3, sIL6R Fc dimer (UniProt P08887 20-358, limits assumed).
T3 construct: not shown: Fc
T3 sequence (looked up): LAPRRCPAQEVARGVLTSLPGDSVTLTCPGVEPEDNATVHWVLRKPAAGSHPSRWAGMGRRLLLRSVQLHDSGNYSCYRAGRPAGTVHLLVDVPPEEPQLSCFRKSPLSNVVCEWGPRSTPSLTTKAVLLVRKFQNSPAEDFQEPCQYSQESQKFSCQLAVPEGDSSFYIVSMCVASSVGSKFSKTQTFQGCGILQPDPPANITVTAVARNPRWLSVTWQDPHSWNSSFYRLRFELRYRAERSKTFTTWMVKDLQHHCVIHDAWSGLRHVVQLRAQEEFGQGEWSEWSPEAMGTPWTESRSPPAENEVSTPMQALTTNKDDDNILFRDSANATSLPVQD
Nature of the assay: SPR Biacore T100, binder captured by anti-human Fc.

Assay [4] deals with T4, hu HIL6 Fc dimer (dimeric human HIL6/mouse IgG Fc fusion protein) (human).
T4 construct: also called human hyper-IL6 (IL6R-IL6-mIgG); dimeric HIL6
T4 chain: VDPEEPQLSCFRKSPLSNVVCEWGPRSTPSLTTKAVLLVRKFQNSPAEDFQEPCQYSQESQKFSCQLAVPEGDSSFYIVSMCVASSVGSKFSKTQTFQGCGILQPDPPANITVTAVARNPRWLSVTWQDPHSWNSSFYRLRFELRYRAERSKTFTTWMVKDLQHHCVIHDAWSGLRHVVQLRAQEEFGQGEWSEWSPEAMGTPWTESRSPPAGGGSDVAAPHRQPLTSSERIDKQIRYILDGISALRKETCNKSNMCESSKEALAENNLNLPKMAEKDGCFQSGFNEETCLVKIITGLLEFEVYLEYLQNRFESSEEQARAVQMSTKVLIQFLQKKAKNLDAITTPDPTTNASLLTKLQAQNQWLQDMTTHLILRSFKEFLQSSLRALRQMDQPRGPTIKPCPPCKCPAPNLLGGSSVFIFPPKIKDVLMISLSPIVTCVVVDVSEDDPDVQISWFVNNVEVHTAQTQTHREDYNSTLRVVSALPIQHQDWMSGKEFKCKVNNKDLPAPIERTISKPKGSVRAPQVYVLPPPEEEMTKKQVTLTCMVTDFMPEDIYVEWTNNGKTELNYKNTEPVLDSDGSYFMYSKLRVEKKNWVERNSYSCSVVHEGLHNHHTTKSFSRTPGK
Description: SPR Biacore T100, binder captured by anti-human Fc.

Assay [5] addresses T5, recombinant human TNF-α (human, UniProt P01375 77-233).
T5 construct: also called rhTNFα
Nature of the assay: ELISA, Xceptor captured by anti-human Fc.

In assay [6] the target is T6, recombinant human soluble IL6 receptor (human, UniProt P08887 20-358).
T6 construct: also called sIL6R; sIL-6R
T6 sequence (looked up): T3 sequence (looked up)
Description: ELISA, Xceptor captured by anti-human Fc.

T5 sequence (P01375 77-233 limits assumed): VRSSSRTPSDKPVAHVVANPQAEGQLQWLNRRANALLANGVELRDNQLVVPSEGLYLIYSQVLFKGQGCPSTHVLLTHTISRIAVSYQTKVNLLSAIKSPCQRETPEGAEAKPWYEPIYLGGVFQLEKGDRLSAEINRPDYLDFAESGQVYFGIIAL

B1: TRU(XT6)-1013 (Fc fusion)
chain: LPAQVAFTPYAPEPGSTCRLREYYDQTAQMCCSKCSPGQHAKVFCTKTSDTVCDSCEDSTYTQLWNWVPECLSCGSRCSSDQVETQACTREQNRICTCRPGWYCALSKQEGCRLCAPLRKCRPGFGVARPGTETSDVVCKPCAPGTFSNTTSSTDICRPHQICNVVAIPGNASMDAVCTSTSPTRSMAPGAVHLPQPVSTRSQHTQPTPEPSTAPSTSFLLPMGPSPPAEGSTGDTGEPKSSDKTHTCPPCPAPEAAGAPSVFLFPPKPKDTLMISRTPEVTCVVVDVSHEDPEVKFNWYVDGVEVHNAKTKPREEQYNSTYRVVSVLTVLHQDWLNGKAYACAVSNKALPAPIEKTISKAKGQPREPQVYTLPPSRDELTKNQVSLTCLVKGFYPSDIAVEWESNGQPENNYKTTPPVLDSDGSFFLYSKLTVDKSRWQQGNVFSCSVMHEALHNHYTQKSLSLSPGQRHNNSSLNTRTQKARHSPNSEVQLLESGGGLVQPGGSLRLSCAASGFTFSGYVMGWVRQAPGKGLEWVSSISPSGGYTLYADSVKGRFTISRDNSKNTLYLQMNSLRAEDTAVYYCARAFSTRWYWGAFDIWGQGTMVTVSSGGGGSGGGGSGGGGSQDIQMTQSPATLSLSPGERATLSCRASQSVRSYLAWYQQKPGQAPRLLIYDASNRATGIPARFSGSGSGTDFTLTITSLQPEDIATYYCQQYDNLPLTFGGGTKVEIK
notes: Xceptor, TNFRSF1B ectodomain N-terminal, anti-IL6xR domain C-terminal
In general, Kd refers to the free concentration of one partner at which half of the binding sites on the other are occupied at equilibrium, for simple one-to-one binding. On to B1, for which the figures for the Kd in assay [1] and in assay [4] were 190 nM and 270 nM, respectively. Further, the binding result in assay [2] and in assay [3] was “no binding (tested: 100 nM)” throughout.

B2: TRU(X6T)-1019 (Fc fusion)
chain: EVQLLESGGGLVQPGGSLRLSCAASGFTFSWYLMHWVRQAPGKGLEWVSGIWPSGGHTLYADSVKGRFTISRDNSKNTLYLQMNSLRAEDTAVYYCAREPLLWFGELSYNWFDPWGQGTLVTVSSGGGGSGGGGSGGGGSQDIQMTQSPSSVSASVGDRVTITCRASQGISSWLAWYQQKPGKAPKLLIYAASSLQSGVPSRFSGSGSGTDFTLTISSLQPEDFATYYCQQANSFPLTFGGGTKVEIKTGEPKSSDKTHTCPPCPAPEAAGAPSVFLFPPKPKDTLMISRTPEVTCVVVDVSHEDPEVKFNWYVDGVEVHNAKTKPREEQYNSTYRVVSVLTVLHQDWLNGKAYACAVSNKALPAPIEKTISKAKGQPREPQVYTLPPSRDELTKNQVSLTCLVKGFYPSDIAVEWESNGQPENNYKTTPPVLDSDGSFFLYSKLTVDKSRWQQGNVFSCSVMHEALHNHYTQKSLSLSPGQRHNNSSLNTRTQKARHSPNSLPAQVAFTPYAPEPGSTCRLREYYDQTAQMCCSKCSPGQHAKVFCTKTSDTVCDSCEDSTYTQLWNWVPECLSCGSRCSSDQVETQACTREQNRICTCRPGWYCALSKQEGCRLCAPLRKCRPGFGVARPGTETSDVVCKPCAPGTFSNTTSSTDICRPHQICNVVAIPGNASMDAVCTSTSPTRSMAPGAVHLPQPVSTRSQHTQPTPEPSTAPSTSFLLPMGPSPPAEGSTGD
As to B2, the binding result in assay [5] is recorded as “binds”; in assay [6] it was “no binding (tested: 75 pM sIL-6R)”; in assay [3], “no binding (tested: 100 nM)”. Further, the values for the Kd in assay [1], in assay [2] and in assay [4] were 1.9 nM, 0.57 nM and 300 nM, respectively.

B3: TRU(XT6)-1058 (Fc fusion)
chain: LPAQVAFTPYAPEPGSTCRLREYYDQTAQMCCSKCSPGQHAKVFCTKTSDTVCDSCEDSTYTQLWNWVPECLSCGSRCSSDQVETQACTREQNRICTCRPGWYCALSKQEGCRLCAPLRKCRPGFGVARPGTETSDVVCKPCAPGTFSNTTSSTDICRPHQICNVVAIPGNASMDAVCTSTSPTRSMAPGAVHLPQPVSTRSQHTQPTPEPSTAPSTSFLLPMGPSPPAEGSTGDTGEPKSSDKTHTCPPCPAPEAAGAPSVFLFPPKPKDTLMISRTPEVTCVVVDVSHEDPEVKFNWYVDGVEVHNAKTKPREEQYNSTYRVVSVLTVLHQDWLNGKAYACAVSNKALPAPIEKTISKAKGQPREPQVYTLPPSRDELTKNQVSLTCLVKGFYPSDIAVEWESNGQPENNYKTTPPVLDSDGSFFLYSKLTVDKSRWQQGNVFSCSVMHEALHNHYTQKSLSLSPGQRHNNSSLNTRTQKARHSPNSEVQLLESGGGLVQPGGSLRLSCAASGFTFSMYTMHWVRQAPGKGLEWVSWISPSGGWTKYADSVKGRFTISRDNSKNTLYLQMNSLRAEDTAVYYCAVSPWGGPFDYWGQGTLVTVSSGGGGSGGGGSGGGGSQDIQMTQSPSTLSASVGDRVTITCRASQSISSWLAWYQQKPGKAPKLLIYKASTLESGVPSRFSAGGSGTEFTLTISSLQPDDFGTYYCQQYNSYSLTFGGGTKVEII
notes: as for B1
In the case of B3, the binding result in assay [5] is reported as “binds”; in assay [6] it was “no binding (tested: 75 pM sIL-6R)”.

B4: TRU(XT6)-1019 (Fc fusion)
chain: LPAQVAFTPYAPEPGSTCRLREYYDQTAQMCCSKCSPGQHAKVFCTKTSDTVCDSCEDSTYTQLWNWVPECLSCGSRCSSDQVETQACTREQNRICTCRPGWYCALSKQEGCRLCAPLRKCRPGFGVARPGTETSDVVCKPCAPGTFSNTTSSTDICRPHQICNVVAIPGNASMDAVCTSTSPTRSMAPGAVHLPQPVSTRSQHTQPTPEPSTAPSTSFLLPMGPSPPAEGSTGDTGEPKSSDKTHTCPPCPAPEAAGAPSVFLFPPKPKDTLMISRTPEVTCVVVDVSHEDPEVKFNWYVDGVEVHNAKTKPREEQYNSTYRVVSVLTVLHQDWLNGKAYACAVSNKALPAPIEKTISKAKGQPREPQVYTLPPSRDELTKNQVSLTCLVKGFYPSDIAVEWESNGQPENNYKTTPPVLDSDGSFFLYSKLTVDKSRWQQGNVFSCSVMHEALHNHYTQKSLSLSPGQRHNNSSLNTRTQKARHSPNSEVQLLESGGGLVQPGGSLRLSCAASGFTFSWYLMHWVRQAPGKGLEWVSGIWPSGGHTLYADSVKGRFTISRDNSKNTLYLQMNSLRAEDTAVYYCAREPLLWFGELSYNWFDPWGQGTLVTVSSGGGGSGGGGSGGGGSQDIQMTQSPSSVSASVGDRVTITCRASQGISSWLAWYQQKPGKAPKLLIYAASSLQSGVPSRFSGSGSGTDFTLTISSLQPEDFATYYCQQANSFPLTFGGGTKVEIK
notes: as for B1
In the case of B4, the binding result in assay [5] is reported as “binds”; in assay [6], “no binding (tested: 75 pM sIL-6R)”; in assay [3] it was “no binding (tested: 100 nM)”. Further, the results for the Kd in assay [1], in assay [2] and in assay [4] were 17 nM, 1 nM and 5.7 nM, respectively.
